Biological target: T1, Ubc13 (human, UniProt P61088 1-152)
T1 construct: Ubc13, ubiquitin-conjugating enzyme (E2), human; also called purified Ubc13; source: recombinant, purified
T1 sequence (looked up): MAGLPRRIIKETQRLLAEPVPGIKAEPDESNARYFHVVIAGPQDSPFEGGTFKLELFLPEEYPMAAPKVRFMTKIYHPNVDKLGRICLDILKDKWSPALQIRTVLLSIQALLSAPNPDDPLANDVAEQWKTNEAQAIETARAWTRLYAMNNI
Experiment: SPR; Uev1 immobilised on a Biacore CM5 chip (1179,1 RU); Ubc13 in the mobile phase; 10 mM HEPES, 0.15 M NaCl, pH 7.4; Biacore T100
Settings: both partners purified

Kd: 1 nM
B1: Uev1 (natural protein)
chain: not shown
notes: Uev1, ubiquitin-conjugating enzyme variant 1, human; also called recombinant Uev1; source: recombinant, purified
